Test results as given in the supplement of paper PMC10567573.

B1: LARP4 (parent)
chain: WTVANMEEIKKLTTDPDLILEVLR
B2: ZNF649 (parent)
chain: YQAGKPDALTKLEQGEPLWTLEDE

Variants of: B1
Assay: protein stability index of a GFP-peptide fusion (GPS, HEK-293T) (PSI 1-6); higher = more stable
Conditions: c terminus: a fixed tail appended
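Note: lentivirally expressed fusions sorted by FACS into six bins by GFP to DsRed ratio, PSI derived from sequencing read proportions per bin multiplied by bin number.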

Protein stability index of substitutions, site by site:
T14: S 1.91, V 1.05, W 1.75, Y 1.65
D15: A 1.69, C 1.53, E 3.16, F 1.7, G 2.05, H 2.21, I 1.18, K 2.05, L 2.1, M 2.26, N 2.14, P 1.97, Q 2.1, R 1.4, S 1.53, T 2, V 1.59, W 1.89, Y 1.38
P16: A 1.55, C 1.75, D 2.38, E 2.22, F 1.63, H 1.63, I 1.67, K 1.59, L 2.21, M 2.11, N 1.93, Q 1.84, R 2.25, S 2.28, T 1.89, V 1.2, W 1.43, Y 1.91
D17: A 2.09, C 1.44, E 1.79, F 1.77, G 1.51, H 1.88, I 1.25, K 2.05, L 1.52, M 2.16, N 1.93, P 2.2, Q 2.32, R 1.86, S 2.02, T 1.77, V 1.98, W 1.49, Y 1.53
L18: A 2.71, C 2.34, D 2.77, E 3.67, F 1.92, G 2.95, H 2.6, I 2.5, K 2.8, M 2.55, N 3.53, P 2.33, Q 3.13, R 2.87, S 3.05, T 2.26, V 2.99, W 2.54, Y 3.46
I19: A 2.49, C 1.96, D 3.77, E 3.4, F 2.18, G 2.26, H 2.82, K 3.21, L 2.12, M 2.73, N 2.91, P 3.42, Q 3.12, R 3.21, S 3.09, T 2.96, V 1.59, W 2.47, Y 2.67
L20: A 3.37, C 2.56, D 3.74, E 3.68, F 2.15, G 2.01, H 2.64, I 2.1, K 3.53, M 2.02, N 3.24, P 3.02, Q 3.64, R 2.38, S 2.1, T 2.52, V 2.19, W 2.01, Y 2.17
E21: A 2.1, C 1.69, D 2.31, F 1.63, G 2.21, H 1.58, I 1.85, K 2.36, L 1.48, M 2.08, N 2.32, P 1.98, Q 1.6, R 1.92, S 1.66, T 1.9, V 1.86, W 2.1, Y 2.12
V22: A 2.79, C 2.86, D 3.77, E 3.59, F 2.77, G 2.48, H 3.48, I 2.14, K 3.3, L 2.34, M 1.91, N 3.25, P 2.23, Q 3.18, R 2.48, S 2.56, T 2.25, W 2.33, Y 2.64
L23: A 2.37, C 3.17, D 4.03, E 2.96, F 2.46, H 2.61, I 2.65, K 3.28, M 2.12, N 3.56, P 2.89, Q 2.63, R 2.47, S 3.27, T 3.08, V 2.85, W 2.96, Y 3.06
R24: A 2.12, C 2.3, D 2, E 2.53, F 1.74, G 2.65, H 1.75, I 2.14, K 1.82, L 1.12, M 1.47, N 2.48, P 2.37, Q 2.38, S 2.27, T 2.5, V 1.83, W 2.31, Y 1.57

Variants of: B2
Assay: as above
Conditions: c terminus: a fixed tail appended

Protein stability index: each site, then its substitutions
Y1: A 4.88, C 5.06, D 5.21, F 3.39, G 4.71, H 5.25, I 5.01, K 5.51, L 4.51, M 4.75, N 5.22, P 4.5, Q 5.46, R 5.16, S 5.54, T 5.57, W 4.7
Q2: A 3.68, C 3.87, D 5.48, E 5.66, F 4.6, G 4.38, H 3.08, I 3.29, K 4.58, L 3.1, M 4.63, N 4.22, P 4.8, R 5.15, S 4.99, T 5.05, V 2.53, Y 3.56
A3: C 3.83, E 4.65, F 3.64, H 4.14, I 4.51, K 4.75, L 4.26, M 4.1, N 4.71, P 4.36, Q 4.75, R 3.66, T 4.54, V 4.42, W 2.2, Y 4.25
G4: A 4.68, C 4.47, D 5.05, E 4.38, F 4.8, H 4.58, I 4.22, K 4.18, L 4.17, N 4.92, P 4.63, Q 4.08, R 3.53, S 4.4, T 3.97, Y 3.59
K5: A 4.48, C 4.72, D 4.01, E 4.59, F 2.76, I 4.02, L 4.05, M 4.38, N 4.84, P 5, R 3.31, S 4.48, T 4.6, V 3.03, Y 2.6
P6: A 3.88, C 4.17, D 3.77, E 5.46, F 3.31, G 4.99, H 3.93, I 4.32, K 4.29, L 3.79, M 3.85, N 4.15, Q 4.15, S 4.19, T 4.64, V 4.42, W 2.99, Y 3.91
D7: A 3.4, C 2.37, E 4.77, F 2.49, H 4.18, I 2.61, K 3.66, L 3.15, N 3.26, P 4.16, Q 3.58, R 3.65, S 3.99, T 3.59, V 3.28, Y 2.06
A8: C 3.61, D 4.94, E 5.31, F 2.91, G 4.87, H 4.04, I 4.08, K 4.85, L 3.56, M 3.83, N 4.49, P 4.27, Q 4.41, R 4.65, S 4.46, T 3.95, V 3.51, W 1.18
L9: A 4.95, C 4.63, D 5.48, E 4.93, F 4.01, G 4.55, H 4.04, I 4.69
